Measurements from patent publication US6287561.

Target: gp120 of HIV-1 RF strain (HIV-1 RF strain) (UniProt P04579)

LMW-UK (from UniProt P00749)
p24 antigen level in H9 cell supernatants, percent of control: 4 % of control
